Ends that are not written are not given here.
Experiments:
[1] = biological target: T1, Aβ (1-40) peptide (Homo sapiens, UniProt P05067); assay: In vitro formation of amyloid fibril from Aβ (1-40), Thioflavin T fluorescence; assay type: biochemical; conditions: for effect on Aβ fibril formation (in words): 33 μM Aβ, ThT fluorescence; for Lag (fold change) / Rate (fold change): relative to No addition, asterisk = statistically significant
T1 construct: synthetic Aβ (1-40) peptide; purchased Biosource, Camarillo, Calif., USA; host or cells: chemical synthesis
T1 sequence (P05067 672-711 limits assumed): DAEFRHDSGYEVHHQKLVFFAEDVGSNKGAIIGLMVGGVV
From the text: In vitro formation of amyloidfibril—In vitro formation of amyloid fibril was in the presence of the synthetic Aβ (1-40) peptide (Biosource, Camarillo, Calif., USA) as a precursor. The reporter molecule was Thioflavin T (ThT) (Sigma, Cat. No. T-3516, Jerusalem, Israel), a benzothiazole dye that undergoes a shift in its excitation spectrum (from 340 nm to 450 nm) when interacting with β-sheet amyloid structures. The resultant ThT fluorescence signal is proportional to the amount of amyloid formed (LeVine, 1993). A stock solution of Aβ in dimethylsulfoxide (DMSO) was diluted with phosphate-buffered saline (PBS) containing 0.02% Na-Azid to a final concentration of 162 μM and 20 μl of the diluted Aβ solution was placed in each well of a 96 multiwell plate (Nunc, Roskilde, Denmark). After 20 minutes of pre-incubation at room temperature of the Aβ samples (20 μl), 80 μl of 1.25 μM ThT in 50 mM glycine buffer, pH 8.5, was added. Incubation was with shaking at 200 rpm for 6 to 8 hours at the noted temperatures. Fluorescence was measured continuously or at 30-40 minute intervals, using a Spectro-fluorometer (Tecan, Maennedorf, Switzerland). Excitation and emission wavelengths were 450 nm and 485 nm, respectively. Enhancement of the fibrillation process by the different combinations of water-dissolved cholinesterases and peptides mimicking fragments thereof, was evaluated by dissecting the time curves into two stages: the lag before the onset of the fluorescence increase (the nucleation process) and the average rate of fluorescence increase at several time points (rate of fibrils formation). Statistics analysis was performed using the Kaleidagraph Software (Reading, Pa., USA).
BChE attenuates amyloid fibrils formation—Amyloid fibril (Aβ) formation was quantified by measuring changes in ThT fluorescence. As predicted, Aβ fibrils were spontaneously formed in vitro provided that the Aβ peptide was present above 5 μM. […] Reactions were performed in the absence or presence of increasing concentrations of purified human BChE (SEQ ID NO:2; FIG. 1a), recombinant ACHE-S (SEQ ID NO:6; FIG. 1b) or both (FIGS. 1c and d). […] Due to the complex kinetics of the fibril formation process the apparent rate of change in ThT fluorescence was repeatedly determined during the exponential phase of increase in its signal (at 390±20 minutes). […] In contrast, addition of similar doses of AChE to Aβ, predictably shortened by half the lag time prior to fibril formation, again in a dose dependent manner (FIG. 1e). The lag period therefore decreased from 240 minutes to 150 minutes and the maximal rate of fibril formation increased from 0.057 to 0.116 fluorescence units (FU)/min for Aβ alone as compared to Aβ in the presence of 0.36 μM AChE-S (FIG. 1b and Table 7, hereinbelow). When increasing doses of hBChE were added to a combined mix of 33 μM Aβ with 0.36 μM AChE-S, a dose-dependent interference with the fibril formation process was observed (FIG. 1c and 2a). Thus, BChE is capable of reducing the rate of fibrillation of Aβ alone, or Aβ which is formed in the presence of AChE.

[2] = Solubility in water for CD measurements; assay type: physicochemical; conditions: up to the concentration required for CD tests (1×10^−4 M); HFIP used instead
Experimental: Circular Dichroism (CD) measurements—For circular dichroism (CD) measurements, ASP peptides were dissolved in double distilled water (DDW) to a final concentration of 1×10^−4 M. To reach this concentration, as required for the CD measurements, BSP had to be dissolved in 1,1,1,3,3,3-hexafluoro-2-propanol (HFIP). Direct CD spectra were recorded at room temperature using a CD Jasco J-810 Spectropolarimeter (Easton, Md., USA) with a 1 mm path length cell. Recordings were at 0.5 nm intervals in the spectral range 185-260 nm.
Molecular modeling points at putative structural differences between BSP and ASP—In search for structural differences between the BSP and ASP peptides, the circular dichroism (CD) properties of the synthesized series of BSP and ASP peptides were determined (FIG. 4). […] The helical features observed for ASP40 are in line with reports of others (Cottingham et al., 2003).

Substance | effect on Aβ fibril formation (in words) [1] | Lag (fold change) [1] [fold change] | Rate (fold change) [1] [fold change] | solubility in water (in words) [2]
ASP23: synthetic AChE-S C-terminal peptide, mimics residues 592-614 in hAChE [reference compound] | no significant effect on amyloid formation | 1.1 | 1.2 | –
ASP40: synthetic AChE-S C-terminal peptide, mimics residues 575-614 in hAChE (DTLDEAERQWKAEFHRWSSYMVHWKNQFDHYSKQDRCSDL; ASP40 Synthetic peptide) [reference compound] | failed to show any significant capacity to activate or inhibit fibrillation | 1.1 | 0.8 | –
GNIDEAEWEWKAGFHRWNNYMMDWKNQFNDYTSKKESCVGL [BSP41] | – | – | – | difficulties to solubilize

Source: patent US20090169520A1, “Compounds, Pharmaceutical Compositions and Therapeutic Methods of Preventing and Treating Diseases and Disorders Associated With Amyloid Fibril Formation” (YISSUM RESEARCH DEVELOPMENT COMPANY OF THE HEBREW …, priority 2005, published 2009)
